We go through 11 molecules from patent US20250136721A1 (GlaxoSmithKline, published 2025).

The target of experiment [1] is pre-existing anti-VH ADA in human serum. Kind of experiment: ADA confirmation assay (MSD): 10 ug/mL test material against labelled DOM1H-131-206; share of 10 ADA-positive sera with binding.
The target is the same in experiment [2]. The experiment in a line: ADA confirmation assay (MSD): 10 ug/mL test material against labelled DOM1H-131-206, mean of 10 sera.
For experiment [3] the target is unchanged. The description is as above. The source holds these as a separate data set.

Where two headings read alike, the source gives them in different places.

B1: DOM1H-131-206 L108Q (protein, name in Kabat numbering)
VH: EVQLLESGGGLVQPGGSLRLSCAASGFTFAHETMVWVRQAPGKGLEWVSHIPPDGQDPFYADSVKGRFTISRDNSKNTLYLQMNSLRAEDTAVYHCALLPKRGPWFDYWGQGTQVTVSS
The molecule B1 came in with a % subjects with ADA binding (10 subjects) (% of subjects) in experiment [1] of 100. The molecule further had a Mean % inhibition of signal in confirmation assay in experiment [2] of 90.9%.

B2: DOM1H-131-206 Q13A (protein, name in Kabat numbering)
VH: EVQLLESGGGLVAPGGSLRLSCAASGFTFAHETMVWVRQAPGKGLEWVSHIPPDGQDPFYADSVKGRFTISRDNSKNTLYLQMNSLRAEDTAVYHCALLPKRGPWFDYWGQGTLVTVSS
As for B2, in experiment [1], the % subjects with ADA binding (10 subjects) (% of subjects) amounted to 100. The molecule further showed a Mean % inhibition of signal in confirmation assay in experiment [2] of 99.2%.

B3: DT04-H-033 C-terminal AS (protein)
VH: EVQLLESGGGLVQPGGSLRLSCAASGFTFADYGMAWVRQAPGKGLEWVSTISYNGLYTYYADSVKGRTISRDNSKNTLYLQMNSLRAEDTAVYYCAKYEYSPESDFDYWGQGTLVTVSSAS
For B3, in experiment [2], the Mean % inhibition of signal in confirmation assay was determined as 8.26%.

B4: DOM1H-131-206 P14A + C-terminal ASTKG (protein)
VH: EVQLLESGGGLVQAGGSLRLSCAASGFTFAHETMVWVRQAPGKGLEWVSHIPPDGQDPFYADSVKGRFTISRDNSKNTLYLQMNSLRAEDTAVYHCALLPKRGPWFDYWGQGTLVTVSSASTKG
In experiment [3], B4 returned a Mean % inhibition of signal in confirmation assay of 11.9%.

B5: DOM1H-131-206 P14T + C-terminal ASTKG (protein, name in Kabat numbering)
VH: EVQLLESGGGLVQTGGSLRLSCAASGFTFAHETMVWVRQAPGKGLEWVSHIPPDGQDPFYADSVKGRFTISRDNSKNTLYLQMNSLRAEDTAVYHCALLPKRGPWFDYWGQGTLVTVSSASTKG
Regarding B5, in experiment [3], the Mean % inhibition of signal in confirmation assay was 17.2%.

B6: DOM1H-131-206 P14A + C-terminal A (protein)
VH: EVQLLESGGGLVQAGGSLRLSCAASGFTFAHETMVWVRQAPGKGLEWVSHIPPDGQDPFYADSVKGRFTISRDNSKNTLYLQMNSLRAEDTAVYHCALLPKRGPWFDYWGQGTLVTVSSA
In turn, B6 yielded a Mean % inhibition of signal in confirmation assay in experiment [3] of 8.76%.

B7: DOM1H-131-206 C-terminal AS (protein)
VH: EVQLLESGGGLVQPGGSLRLSCAASGFTFAHETMVWVRQAPGKGLEWVSHIPPDGQDPFYADSVKGRFTISRDNSKNTLYLQMNSLRAEDTAVYHCALLPKRGPWFDYWGQGTLVTVSSAS
Molecule B7 gave a Mean % inhibition of signal in confirmation assay in experiment [2] of 16.3%.

B8: DT04-H-033 C-terminal AAA (protein)
VH: EVQLLESGGGLVQPGGSLRLSCAASGFTFADYGMAWVRQAPGKGLEWVSTISYNGLYTYYADSVKGRTISRDNSKNTLYLQMNSLRAEDTAVYYCAKYEYSPESDFDYWGQGTLVTVSSAAA
For B8, the Mean % inhibition of signal in confirmation assay in experiment [2] came to 11%.

B9: DT04-H-033 C-terminal AST (protein)
VH: EVQLLESGGGLVQPGGSLRLSCAASGFTFADYGMAWVRQAPGKGLEWVSTISYNGLYTYYADSVKGRTISRDNSKNTLYLQMNSLRAEDTAVYYCAKYEYSPESDFDYWGQGTLVTVSSAST
In experiment [2], B9 displayed a Mean % inhibition of signal in confirmation assay of 14%.

B10: DOM1H-131-206 C-terminal ASTK (protein)
VH: EVQLLESGGGLVQPGGSLRLSCAASGFTFAHETMVWVRQAPGKGLEWVSHIPPDGQDPFYADSVKGRFTISRDNSKNTLYLQMNSLRAEDTAVYHCALLPKRGPWFDYWGQGTLVTVSSASTK
Molecule B10 showed a % subjects with ADA binding (10 subjects) (% of subjects) in experiment [1] of 40. In experiment [2], the Mean % inhibition of signal in confirmation assay was determined as 19.6%.

B11: DT04-H-033 C-terminal A (protein)
VH: EVQLLESGGGLVQPGGSLRLSCAASGFTFADYGMAWVRQAPGKGLEWVSTISYNGLYTYYADSVKGRTISRDNSKNTLYLQMNSLRAEDTAVYYCAKYEYSPESDFDYWGQGTLVTVSSA
B11 gave a Mean % inhibition of signal in confirmation assay in experiment [2] of 12.5%.
